For the experiment, the target named is T1, SDR5C1 (human, UniProt Q99714 1-261).
T1 construct: expression construct as previously described (Reinhard et al, 2017); The subcomplex was purified by Ni2+ IMAC and treated with TEV protease; also called 4xSDR5C1
T1 sequence: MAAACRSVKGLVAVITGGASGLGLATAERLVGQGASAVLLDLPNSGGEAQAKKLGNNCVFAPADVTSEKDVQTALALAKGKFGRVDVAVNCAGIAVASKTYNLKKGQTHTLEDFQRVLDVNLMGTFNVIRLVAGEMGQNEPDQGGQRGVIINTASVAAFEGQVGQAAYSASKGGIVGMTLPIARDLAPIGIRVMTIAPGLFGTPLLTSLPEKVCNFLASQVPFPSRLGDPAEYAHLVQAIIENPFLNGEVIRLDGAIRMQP
In words: cryo-EM structure; RNase Z-HS product complex: assembled at 4 °C from 10 μM TRMT10C/SDR5C1, 20 μM ELAC2 and 20 μM mt-tRNA^His-Ser(AGY) precursor with 200 μM SAM in buffer D (20 mM HEPES 7.5, 50 mM NaCl, 1 mM MgCl2, 1 mM DTT), S200 size exclusion, incubated to complete turnover; 2.9 Å. The conditions noted are these: both partners purified. A general note: Size exclusion chromatography separates by hydrodynamic size, large species first.

Results on 1 molecule are retold here after publication PMC11649783, “Structural basis of 3′-tRNA maturation by the human mitochondrial RNase Z complex” (The EMBO Journal, 2024).

B1: TRMT10C (enzyme, human, UniProt Q7L0Y3 40-403, looked up)
chain: MSSKIPAVTYPKNESTPPSEELELDKWKTTMKSSVQEECVSTISSSKDEDPLAATREFIEMWRLLGREVPEHITEEELKTLMECVSNTAKKKYLKYLYTKEKVKKARQIKKEMKAAAREEAKNIKLLETTEEDKQKNFLFLRLWDRNMDIAMGWKGAQAMQFGQPLVFDMAYENYMKRKELQNTVSQLLESEGWNRRNVDPFHIYFCNLKIDGALHRELVKRYQEKWDKLLLTSTEKSHVDLFPKDSIIYLTADSPNVMTTFRHDKVYVIGSFVDKSMQPGTSLAKAKRLNLATECLPLDKYLQWEIGNKNLTLDQMIRILLCLKNNGNWQEALQFVPKRKHTGFLEISQHSQEFINRLKKAKT
notes: TRMT10C, human; expression construct as previously described (Reinhard et al, 2017); The subcomplex was purified by Ni2+ IMAC and treated with TEV protease
For B1, the “stoichiometry N” value was 2 mt-tRNA/TRMT10C per SDR5C1 tetramer.
